Test results: patent US11629364B2, “Methods for synthesizing anticoagulant polysaccharides” (OPTIMVIA, LLC, priority 2019, dated 2023)
One block for each molecule: values may come before it.

How the values were obtained:
Format in all cases: biochemical
[1] = 2OST activity: 2-O sulfated products detected by LCMS after lyase digestion; conditions: procedures of Example 3; expected
Procedure: A study was conducted in accordance with embodiments of the present disclosure to confirm 2OST activity of enzymes comprising the amino acid sequence of SEQ ID NO: 14 or SEQ ID NO: 16 by detecting the presence of 2-O sulfated polysaccharide products formed as a result of their sulfotransfer reaction, using a similar procedure as in Example 2, except that the sulfo acceptor polysaccharide was commercial heparin in which the 2-O sulfate groups had been selectively removed by chemical means (product DSH001/2, available from Galen Laboratory Supplies) and analysis of each of the digested samples containing sulfated products was conducted using mass spectrometry, coupled with SAX-based high performance liquid chromatography (LCMS).
Disaccharides obtained by digesting the 2-O sulfated products using the carbon-oxygen lyases having the amino acid sequence of SEQ ID NO: 30, SEQ ID NO: 31, and SEQ ID NO: 32 and according to the procedure described above in Example 2 were quantified on a Shimadzu LCMS-8050 Triple Quadrupole Liquid Chromatograph Mass Spectrometer. 100 ng of each of the digested samples, diluted in 10 mM ammonium bicarbonate (pH 10). The disaccharides were separated on a Thermo Hypercarb HPLC column (100×2.1 mm, 5 μm). […]

[2] = 3OST activity: 3-O sulfated products detected by LCMS after lyase digestion; conditions: for 3OST activity: N,2,3,6-HS products by MS and/or NMR: procedures of Example 5 and/or Example 6, expected
Procedure: A study was conducted in accordance with embodiments of the present disclosure to confirm 3OST activity of enzymes comprising the amino acid sequence of SEQ ID NO: 24, SEQ ID NO: 26, or SEQ ID NO: 28 by detecting the presence of 3-O sulfated polysaccharide products as a result of their sulfotransfer reaction, using a reaction, using a similar LCMS procedure as in Example 3, except that the sulfo acceptor polysaccharide was commercially-available heparin (CAS code: 9041-08-1, available from Millipore Sigma). Even though the unmodified heparin contains ˜3.5% (w/w) of 3-O sulfated glucosamine residues, about ˜60% of the glucosamine residues are N,6-sulfated and are adjacent to a 2-O sulfated hexuronic acid residue, as in Formula X. Consequently, these N,6-sulfated glucosamine residues can still be 3-O sulfated.

[3] = 3OST activity confirmed by 1H NMR; conditions: PNS as aryl sulfate compound
Procedure: Each enzyme was purified according to the procedure of Example 1. To each purified protein solution, 20 mg of an aryl sulfate compound (PNS or NCS) dissolved in 2 mL of reaction buffer (50 mM MES pH 7.0, 2 mM CaCl2)) was added to the protein solution and incubated at 37° C. for 10 min. 2.5 mL of 2 mg/mL solution of the commercial heparin polysaccharide utilized in Example 5 was added to protein/donor solution and incubated overnight at 37° C.
Each reaction was centrifuged at 5,000×g for 10 min, applied to a pre-wetted 30K MWCO Amicon-15 filter and centrifuged at 5,000×g for 10 min. The filter was washed once with 2 mL water, and centrifuged again. The filtrate was added to a 1K MWCO Dialysis membrane, dialyzed for 2 days in Milli-Q water, with water changes at 1 h, 2 h, 8 h, 16 h, 32 h, and then lyophilized. The dry, white powder was resuspended in 400 μL D20, lyophilized to remove exchangeable protons, then resuspended in 600 μL D2O and transferred to NMR tubes (Wilmad, 0.38 mm×7″). To determine if sulfotransfer took place, ^1H NMR spectra were obtained on a Bruker 600 MHz NMR, 32 scans, with water suppression. Within FIG. 30, the 3-O positions of any of the glucosamine residues can be sulfated by the 3OST enzyme. The sulfated 3-O position is circled in the central polysaccharide. […]

2OST activity: N,2-HS products by MS [1]: confirm the presence of N,2-HS products
B1: SEQ ID NO: 41: mutant of the human 2OST enzyme carrying the SEQ ID NO: 14 mutations (protein)
chain: MDEEEDMVIIYNRVPHTASTSFTNIAYDLCAKNKYHVLHINTTKNNPVMSLQDQVRFVKNITSWKEMKPGFYHGHVSYLDFAKFGVKKKPIYINVIRDPIERLVSYYYHLRFGDDYRPGLRRRKQGDKKTFDECVAEGGSDCAPEKLWLQIPFFCGHSSECWNVGSRWAMDQAKYNLINEYFLVGVTEELEDFIMLLEAALPRFFRGATELYRTGKKSHLHKTTEKKLPTKQTIAKLQQSDIWKMENEFYEFALEQFQFIRAHAVREKDGDLYILAQNFFYEKIYPKSN
modifications: Amino acid sequence encoding for engineered arylsulfate-dependent 2-O-sulfotransferase variant 3

2OST activity: N,2-HS products by MS [1]: confirm the presence of N,2-HS products
B2: SEQ ID NO: 42: mutant of the human 2OST enzyme carrying the SEQ ID NO: 16 mutations (protein)
chain: MDEEEDMVIIYNRVHRTASHSFTNIAYDLCAKNKYHVLHINTTKGNPVMSLQDQVRFVKNITSWKEMKPGFYHGPVSYLDFAKFGVKKKPIYINVIRDPIERLVSYYYFLRFGSDKRPGLRMRKQGDKKTFDECVAEGGSDCAPEKLWLQIPFFCGHSSECWNVGSRWAMDQAKYNLINEYFLVGVTEELEDFIMLLEAALPRFFRGATELYRTGKKSHLHKTTEKKLPTKQTIAKLQQSDIWKMENEFYEFALEQFQFIRAHAVREKDGDLYILAQNFFYEKIYPKSN
modifications: Amino acid sequence encoding for engineered arylsulfate-dependent 2-O-sulfotransferase variant 4

abundance of 3-O sulfation in product ([2]; relative to the commercial heparin standard): higher abundance of 3-O sulfation
B3: SEQ ID NO: 26: engineered aryl sulfate-dependent 3OST enzyme, mutant of isoform 1 of the human 3OST enzyme (protein)
chain: MGTASNGSTQQLPQTIIIGVGHGGTRALLEMLSLHPDVAAAENEVHFFDWEEHYSQGLGWYLTQMPFSSPHQLTVEKTHSYFTSPKVPERIHSMNPTIRLLLILRDPSERVLSAYTHMLYNHLQKHKPYPPIEDLLMRDGRLNLDYTGLNRSLYHAHMLNWLRFFPLGHIHIVDGDRLIRDPFPEIQKVERFLKLSPQINASNFYFNKTKGFYCLRDSGKDRCLHESKGRAHPQVDPKLLDKLHEYFHEPNKKFFKLVGRTFDWH
modifications: Amino acid sequence encoding for engineered arylsulfate-dependent 3-O-sulfotransferase variant 2
notes: engineered aryl sulfate-dependent 3OST enzyme, mutant of isoform 1 of the human 3OST enzyme
3OST sulfotransferase activity with NCS ([2]; NCS as aryl sulfate compound): active as a sulfotransferase
3OST sulfotransferase activity with PNS (NMR) [3]: 3-O sulfotransferase activity

B4: SEQ ID NO: 56: full-length mutant of isoform 5 of the mouse 3OST enzyme, SEQ ID NO: 24 mutations (protein)
chain: MLFKQQVWLRQKLLVLGSLAVGSLLYLVARVGSLDRLQPICPVESRFGGAHNQAELPLRALQFKRGLLHEFRKGNSSKEQVHLHDLVQQLPKAIIIGVGHGGTRALLEMLNLHPAVVKASQEIHFFDNDENYAKGIEWYRKKMPFSYPQQITIEKSHSYFITEEVPERIYKMNSSIKLLIIVREPTTRAISAYTHMLEGKERKNKTYYKFEKLAIDPNTCEVNTKYVGVRTSIYTKHLERWLKYFPIEQFHIVDGDRLITEPLPELQLVEKFLNLPPRISQYNLYFNATRGFYCLRFNIIFNKCLAGSKGRIHPEVDPSVITKLRKFFHPFNQKFYQITGRTLNWP
modifications: Amino acid sequence encoding for engineered arylsulfate-dependent 3-O-sulfotransferase variant 8
3OST activity: N,2,3,6-HS products by MS and/or NMR [2]: confirm the presence of N,2,3,6-HS products

B5: SEQ ID NO: 58: full-length mutant of isoform 5 of the mouse 3OST enzyme, SEQ ID NO: 28 mutations (protein)
chain: MLFKQQVWLRQKLLVLGSLAVGSLLYLVARVGSLDRLQPICPVESRFGGAHNQAELPLRALQFKRGLLHEFRKGNSSKEQVHLHDLVQQLPKAIIIGVGHGGTRALLEMLNLHPAVVKASQEIHFFDNDENYAKGIEWYRKKMPFSYPQQITIEKSHSYFITEEVPERIYKMNSSIKLLIIVREPTTRAISLGTHLLEVKERKNKTYYKFEKLAIDPNTCEVNTKYTGVRTSIYTKHLERWLKYFPIEQFHIVDGDRLITEPLPELQLVEKFLNLPPRISQYNLYFNATRGFYCLRFNIIFNKCLAGSKGRIHPEVDPSVITKLRKFFHPFNQKFYQITGRTLNWP
modifications: Amino acid sequence encoding for engineered arylsulfate-dependent 3-O-sulfotransferase variant 10
3OST activity: N,2,3,6-HS products by MS and/or NMR [2]: confirm the presence of N,2,3,6-HS products

B6: SEQ ID NO: 57: full-length mutant of isoform 5 of the mouse 3OST enzyme, SEQ ID NO: 26 mutations (protein)
chain: MLFKQQVWLRQKLLVLGSLAVGSLLYLVARVGSLDRLQPICPVESRFGGAHNQAELPLRALQFKRGLLHEFRKGNSSKEQVHLHDLVQQLPKAIIIGVGHGGTRALLEMLNLHPAVVKASQEIHFFDNDENYAKGIEWYRKKMPFSYPQQITIEKSHSYFITEEVPERIYKMNSSIKLLIIVREPTTRAISAYTHMLEGKERKNKTYYKFEKLAIDPNTCEVNTKYTGVRTSIYTKHLERWLKYFPIEQFHIVDGDRLITEPLPELQLVEKFLNLPPRISQYNLYFNATRGFYCLRFNIIFNKCLAGSKGRIHPEVDPSVITKLRKFFHPFNQKFYQITGRTLNWP
modifications: Amino acid sequence encoding for engineered arylsulfate-dependent 3-O-sulfotransferase variant 9
3OST activity: N,2,3,6-HS products by MS and/or NMR [2]: confirm the presence of N,2,3,6-HS products

B7: SEQ ID NO: 54: mutant of isoform 1 of the pig 3OST enzyme, SEQ ID NO: 28 mutations (protein)
chain: MGVAPNGSAQQLPQTIIIGVGHGGTRALLEMLSLHPDVAAAENEVHFFDWEEHYSHGLGWYLSQMPFSWPHQLTVEKTHSYFTSPKVPERVYSMNPSIRLLLILRDPSERVLSLGTHLFYVHMQKHKPYPSIEEFLVRDGRLNVDYTGLNRSLYHVHMQNWLRFFPLRHIHIVDGDRLIRDPFPEIQKVERFLKLSPQINASNFYFNKTKGFYCLRDSGRDRCLHESKGRAHPQVDPKLLNKLHEYFHEPNKKFFELVGRTFDWH
modifications: Amino acid sequence encoding for engineered arylsulfate-dependent 3-O-sulfotransferase variant 7
3OST activity: N,2,3,6-HS products by MS and/or NMR [2]: confirm the presence of N,2,3,6-HS products
